According to publication PMC7229167, “Atypical chemokine receptor ACKR2-V41A has decreased CCL2 binding, scavenging, and activation, supporting sustained inflammation and increased Alzheimer’s disease risk” (Scientific Reports, 2020):
Positions count from the first letter of the chain named.

How the values were obtained:
[1] = target: T1, Atypical chemokine receptor 2, wild type (ACKR2-WT) (human, UniProt O00590 1-384); assay: flow cytometry on cells; competition: transfected CHO-k1 cells incubated with unconjugated chemokine at 37 °C for 45 minutes, then stained with anti-human ACKR2 polyclonal IgG and PE secondary; blockage = 100 minus percent of ACKR2-positive cells; titration with non-linear analysis for Kd; conditions: one partner purified
T1 construct: Atypical chemokine receptor 2 (ACKR2), human, wild type allele, expressed on the surface of CHO-k1 cells; also called CCBP-WT; source: CHO-k1 cells, transfected (lipofectamine), G418 selected, enriched with anti-PE MicroBeads; on cells
T1 sequence (looked up): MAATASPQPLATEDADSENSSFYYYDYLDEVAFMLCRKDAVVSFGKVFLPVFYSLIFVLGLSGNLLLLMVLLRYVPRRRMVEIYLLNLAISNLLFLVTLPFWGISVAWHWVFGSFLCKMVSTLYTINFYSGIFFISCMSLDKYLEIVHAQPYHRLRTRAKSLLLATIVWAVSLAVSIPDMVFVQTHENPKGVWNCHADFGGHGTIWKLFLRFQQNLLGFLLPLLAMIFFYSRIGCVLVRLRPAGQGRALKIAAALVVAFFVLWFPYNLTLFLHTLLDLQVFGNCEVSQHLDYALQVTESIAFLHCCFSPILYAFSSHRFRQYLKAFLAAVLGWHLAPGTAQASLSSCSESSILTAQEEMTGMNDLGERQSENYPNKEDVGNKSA

[2] = target: T2, Atypical chemokine receptor 2 variant V41A (ACKR2-V41A; rs2228467) (human, UniProt O00590 1-384, V41A); assay: as above; conditions: one partner purified
T2 construct: Atypical chemokine receptor 2 (ACKR2), human, natural variant V41A (rs2228467), expressed on the surface of CHO-k1 cells; also called ACRK2-V41A; source: CHO-k1 cells, transfected (lipofectamine), G418 selected, enriched with anti-PE MicroBeads; on cells
T2 sequence (looked up): T1 sequence (looked up) with V41A

B1: Chemokine ligand 4 (CCL4), unconjugated (ligand, UniProt P13236 24-92, looked up)
chain: APMGSDPPTACCFSYTARKLPRNFVVDYYETSSLCSQPAVVFQTKRSKQVCADPSESWVQEYVYDLELN
notes: Chemokine ligand 4 (CCL4), unconjugated; also called unconjugated CCL4; source: bought: PEPROTECH, Cat #300-.9
In the case of B1, the Kd [1] is reported as 600 nM and the Kd [2] is reported as 2030 nM.
